Numbering of substitutions follows the chain as printed. Names and notes keep the numbering of the source. Values joined by “and” are separate entries in the source; they are usually repeats but may differ in a detail not shown here. Equal entries are not always repeated.
T1: PEX13 SH3-CTR (residues 261-403) (human, UniProt Q92968 261-403)
T1 construct: 15N-labelled in the NMR titrations, unlabelled as ITC titrant; source: E. coli BL21 (DE3), purified (Ni-NTA, SUMO cleavage, reverse Ni-NTA, SEC); not shown: His6-SUMO, N-terminal, cleaved
T1 sequence (looked up): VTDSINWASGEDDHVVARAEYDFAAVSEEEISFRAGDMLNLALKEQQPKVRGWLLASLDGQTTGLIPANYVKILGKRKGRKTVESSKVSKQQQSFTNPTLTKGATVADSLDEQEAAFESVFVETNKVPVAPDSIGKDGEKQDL

B1: PEX5 W7 peptide (peptide)
peptide: AEAHPWLSDYDDLTS
notes: 15-mer with the W7 WxxxY motif of human PEX5; source: synthetic peptide, bought: PSL (Peptide Specialty Laboratories)
B2: PEX13 FxxxF peptide (residues 350-403) (domain or fragment, human, UniProt Q92968 350-403, looked up)
chain: KQQQSFTNPTLTKGATVADSLDEQEAAFESVFVETNKVPVAPDSIGKDGEKQDL
notes: also called Pex13_FxF; source: E. coli BL21 (DE3), purified (Ni-NTA, SUMO cleavage, reverse Ni-NTA, SEC)
B3: PEX5 W6 peptide (peptide)
peptide: GTSDAWVDQFTRPVN
notes: 15-mer with the W6 WxxxF motif of human PEX5; source: synthetic peptide, bought: PSL (Peptide Specialty Laboratories)
B4: PEX13 PxxP peptide (49-61) (peptide, UniProt Q92968 49-61, looked up)
peptide: TRVPPPILPRPSQ
B5: PEX5 W6 peptide (peptide)
peptide: GTSDAWVDQFTRPVN
notes: 15-mer with the W6 (di)aromatic motif of human PEX5; source: synthetic peptide, bought: PSL (Peptide Specialty Laboratories GmbH)
B6: PEX13 C-terminal peptide (351-403) with WT FxxxF motif (peptide)
chain: YGGQQQSFTNPTLTKGATVADSLDEQEAAFESVFVETNKVPVAPDSIGKDGEKQDL
notes: three residues added before residue 351; main text and some legends say 350-403; also called PEX13 FxxxF; FxxxF peptide (350-403); source: E. coli BL21 (DE3), purified (Ni-NTA, SUMO cleavage, reverse Ni-NTA, SEC); not shown: His6-SUMO, N-terminal, cleaved
B7: PEX13 C-terminal peptide (351-403) with the FxxxF motif replaced by the PEX5 W4 motif (peptide)
chain: B6 chain with F30W, E31Y, S32D, V33E, F34Y
notes: three residues added before residue 351; also called FF/W4; source: E. coli BL21 (DE3), purified (Ni-NTA, SUMO cleavage, reverse Ni-NTA, SEC); not shown: His6-SUMO, N-terminal, cleaved
B8: PEX5 W1 peptide (peptide)
peptide: ALSENWAQEFLAAGD
notes: 15-mer with the W1 (di)aromatic motif of human PEX5; source: synthetic peptide, bought: PSL (Peptide Specialty Laboratories GmbH)
B9: PEX14 NTD (1-104) (domain or fragment, human, UniProt O75381 1-104, looked up)
chain: MASSEQAEQPSQPSSTPGSENVLPREPLIATAVKFLQNSRVRQSPLATRRAFLKKKGLTDEEIDMAFQQSGTAADEPSSLGPATQVVPVQPPHLISQPYSPAGS
notes: human PEX14, N-terminal domain, residues 1-104; also called PEX14 1-104; source: E. coli BL21 (DE3), purified (Ni-NTA, SUMO cleavage, reverse Ni-NTA, SEC); not shown: His6-SUMO, N-terminal, cleaved
B10: PEX14 NTD (1-104) (domain or fragment, human, UniProt O75381 1-104, looked up)
chain: B9 chain
notes: human PEX14 (UniProtKB O75381), N-terminal domain, residues 1-104; also called PEX14 (1-104); source: E. coli BL21 (DE3), purified (Ni-NTA, SUMO cleavage, reverse Ni-NTA, SEC)
B11: PEX14 NTD (1-104) (domain or fragment, human, UniProt O75381 1-104, looked up)
chain: B9 chain
notes: human PEX14 N-terminal domain, residues 1-104; also called PEX14 (1-104); source: E. coli BL21 (DE3), purified (Ni-NTA, SUMO cleavage, reverse Ni-NTA, SEC)
B12: PEX5 W5 peptide (peptide)
peptide: AQAEQWAAEFIQQQG
notes: 15-mer with the W5 WxxxF motif of human PEX5; source: synthetic peptide, bought: PSL (Peptide Specialty Laboratories)
B13: PEX5 W7 peptide (peptide)
peptide: AEAHPWLSDYDDLTS
notes: 15-mer with the W7 (di)aromatic motif of human PEX5; source: synthetic peptide, bought: PSL (Peptide Specialty Laboratories GmbH)
B14: PEX5 W1 peptide (peptide)
peptide: ALSENWAQEFLAAGD
notes: 15-mer with the W1 WxxxF motif of human PEX5; source: synthetic peptide, bought: PSL (Peptide Specialty Laboratories)
B15: PEX13 SH3 domain (residues 261-346) (domain or fragment, human, UniProt Q92968 261-346, looked up)
chain: VTDSINWASGEDDHVVARAEYDFAAVSEEEISFRAGDMLNLALKEQQPKVRGWLLASLDGQTTGLIPANYVKILGKRKGRKTVESS
notes: 15N-labelled in the NMR titrations, unlabelled in ITC; source: E. coli BL21 (DE3), purified (Ni-NTA, SUMO cleavage, reverse Ni-NTA, SEC); not shown: His6-SUMO, N-terminal, cleaved
B16: PEX13 SH3 domain (domain or fragment, human)
chain: B15 chain
notes: the SH3-CTR construct begins at 261 and the crystallised chimeras end the SH3 part at 346; source: E. coli BL21 (DE3), purified (Ni-NTA, SUMO cleavage, reverse Ni-NTA, SEC)
B17: PEX13-CTR double cysteine mutant I333C/A376C (IA/CC) (domain or fragment, human, UniProt Q92968 261-403, looked up)
chain: T1 sequence (looked up) with I73C, A116C
notes: the two states are told apart by the assay; 15N-labelled; also called PEX13 CTR IA/CC; PEX13-CTR IA/CC; source: E. coli BL21 (DE3), purified (Ni-NTA, SUMO cleavage, reverse Ni-NTA, SEC); not shown: His6-SUMO, N-terminal, cleaved
B18: PEX5 W5 peptide (peptide)
peptide: AQAEQWAAEFIQQQG
notes: 15-mer with the W5 (di)aromatic motif of human PEX5; source: synthetic peptide, bought: PSL (Peptide Specialty Laboratories GmbH)

Experiments:
Details in all cases: both partners purified
PEX14 NTD (1-104) [1] = molecular target: B10; assay: ITC; PEX14 (1-104) (20-60 uM, concentration corrected with the fit) in the cell, peptide or fragment in the syringe; 25 °C, 20 mM Tris pH 7.5, 50 mM NaCl; one-site binding model; single runs of triplicates and their averages
PEX13 SH3 domain = molecular target: B16; assay: ITC; PEX13 SH3 (35-48 uM) in the cell, peptide or fragment in the syringe; 25 °C, 20 mM Tris pH 7.5, 50 mM NaCl; one-site binding model; single runs of triplicates and their averages
[2] = molecular target: B15; assay: NMR titration; 15N-labelled PEX13 construct (100 µM reference) with unlabelled ligand added; 1H,15N correlation spectra; 298 K; 20 mM Tris pH 7.5, 50 mM NaCl
[3] = molecular target: T1, PEX13 SH3-CTR (residues 261-403); assay: as above
PEX14 NTD (1-104) [4] = molecular target: B9; assay: ITC; PEX14 NTD (1-104) (20-60 µM) in the cell, titrated with PEX5 W peptides or W0 (0.4-0.6 mM), PEX13 FxxxF (0.46 mM) or PEX13 SH3-CTR (1 mM); 25 °C; 20 mM Tris pH 7.5, 50 mM NaCl; one-site binding model; PEX14 concentration corrected with the fit; triplicates
[5] = molecular target: B15; assay: ITC; PEX13 SH3 (35-48 µM) in the cell, titrated with peptide; 25 °C; 20 mM Tris pH 7.5, 50 mM NaCl; one-site binding model; triplicates
PEX5 W3 peptide [6] = molecular target: T2, PEX5 W3 peptide (human); assay: ITC; PEX14 NTD (1-104) (20-60 µM) in the cell, titrated with PEX5 W peptides or W0 (0.4-0.6 mM), PEX13 FxxxF (0.46 mM) or PEX13 SH3-CTR (1 mM); 25 °C; 20 mM Tris pH 7.5, 50 mM NaCl; one-site binding model; PEX14 concentration corrected with the fit; triplicates
T2 construct: 15-mer with the W3 (di)aromatic motif of human PEX5; source: synthetic peptide, bought: PSL (Peptide Specialty Laboratories GmbH)

PEX5 W4 peptide [7] = molecular target: T3, PEX5 W4 peptide (human); assay: as above
T3 construct: source: synthetic peptide, bought: PSL (Peptide Specialty Laboratories GmbH)

PEX5 W2 peptide [8] = molecular target: T4, PEX5 W2 peptide (human); assay: as above
T4 construct: 15-mer with the W2 (di)aromatic motif of human PEX5; source: synthetic peptide, bought: PSL (Peptide Specialty Laboratories GmbH)

PEX5 W2 peptide [9] = molecular target: T5, PEX5 W2 peptide (human); assay: ITC; PEX14 (1-104) (20-60 uM, concentration corrected with the fit) in the cell, peptide or fragment in the syringe; 25 °C, 20 mM Tris pH 7.5, 50 mM NaCl; one-site binding model; single runs of triplicates and their averages
T5 construct: 15-mer with the W2 WxxxF motif of human PEX5; source: synthetic peptide, bought: PSL (Peptide Specialty Laboratories)

PEX5 W3 peptide [10] = molecular target: T6, PEX5 W3 peptide (human); assay: as above
T6 construct: 15-mer with the W3 WxxxY motif of human PEX5; source: synthetic peptide, bought: PSL (Peptide Specialty Laboratories)

PEX5 W4 peptide [11] = molecular target: T7, PEX5 W4 peptide (human); assay: as above
T7 construct: 15-mer with the W4 WxxxY motif of human PEX5 (R183, Y185, Y188 are named in the text); source: synthetic peptide, bought: PSL (Peptide Specialty Laboratories)

PEX5 W4 peptide [12] = molecular target: T8, PEX5 W4 peptide (human); assay: ITC; PEX14 (1-104) at 20-60 µM titrated with PEX5 W peptides or W0 (0.4-0.6 mM), PEX13 FxxxF (0.46 mM) or PEX13 SH3-CTR (1 mM); 25 °C; 20 mM Tris pH 7.5, 50 mM NaCl; one-site model; PEX14 concentration corrected with the fit; triplicates
T8 construct: 15-mer with the W4 WxxxY motif of human PEX5 (R183, Y185, Y188 printed); also called PEX5 W4 motif; source: synthetic peptide, bought: PSL (Peptide Specialty Laboratories)

PEX5 W3 peptide [13] = molecular target: T2, PEX5 W3 peptide; assay: ITC; PEX13 SH3 (35-48 µM) in the cell, titrated with peptide; 25 °C; 20 mM Tris pH 7.5, 50 mM NaCl; one-site binding model; triplicates
PEX5 W2 peptide [14] = molecular target: T5, PEX5 W2 peptide; assay: ITC; PEX13 SH3 (35-48 uM) in the cell, peptide or fragment in the syringe; 25 °C, 20 mM Tris pH 7.5, 50 mM NaCl; one-site binding model; single runs of triplicates and their averages
PEX5 W3 peptide [15] = molecular target: T6, PEX5 W3 peptide; assay: as above
PEX5 W4 peptide [16] = molecular target: T7, PEX5 W4 peptide; assay: as above
PEX5 W4 peptide [17] = molecular target: T3, PEX5 W4 peptide; assay: NMR titration; reduced (2 mM TCEP) 15N PEX13-CTR IA/CC with 4x and 8x PEX5 W4; 1H,15N correlation spectra

Binder: B1
stoichiometry N (PEX14 NTD (1-104) [1]): 1 sites

Binder: B2
Kd (PEX13 SH3 domain): 21.4 µM and 32.4 µM and 27 µM
stoichiometry N (PEX13 SH3 domain): 1 sites
Kd (PEX14 NTD (1-104) [1]): 3.09 µM and 2.23 µM and 3.08 µM
stoichiometry N (PEX14 NTD (1-104) [1]): 1 sites

Binder: B3
stoichiometry N (PEX14 NTD (1-104) [1]): 1 sites

Binder: B4
binding result [2]: binds
binding result [3]: binds

Binder: B5
stoichiometry N (PEX14 NTD (1-104) [4]): 1

Binder: B6
Kd [5]: 26.9 µM
stoichiometry N [5]: 1

Binder: B7
Kd [5]: 6.4 µM
stoichiometry N [5]: 1

Binder: B8
Kd (PEX14 NTD (1-104) [4]): 0.0723 µM
stoichiometry N (PEX14 NTD (1-104) [4]): 1

Binder: B9
Kd (PEX5 W3 peptide [6]): 0.137 µM
Kd (PEX5 W4 peptide [7]): 3.14 µM
Kd (PEX5 W2 peptide [8]): 0.0736 µM

Binder: B10
Kd (PEX5 W2 peptide [9]): 0.0704 µM and 0.0691 µM and 0.0812 µM and 0.0736 µM
Kd (PEX5 W3 peptide [10]): 0.188 µM and 0.0975 µM and 0.124 µM and 0.137 µM
Kd (PEX5 W4 peptide [11]): 2.51 µM and 3.26 µM and 3.64 µM and 3.14 µM

Binder: B11
Kd (PEX5 W4 peptide [12]): 3.14 µM

Binder: B12
Kd (PEX14 NTD (1-104) [1]): 0.0172 µM and 0.0188 µM and 0.0255 µM and 0.0205 µM
stoichiometry N (PEX14 NTD (1-104) [1]): 1 sites

Binder: B13
stoichiometry N (PEX14 NTD (1-104) [4]): 1

Binder: B14
Kd (PEX14 NTD (1-104) [1]): 0.0751 µM and 0.0626 µM and 0.0791 µM and 0.0723 µM
stoichiometry N (PEX14 NTD (1-104) [1]): 1 sites

Binder: B15
Kd (PEX5 W3 peptide [13]): 102 µM

Binder: B16
Kd (PEX5 W2 peptide [14]): 88.8 µM and 86.8 µM and 88.6 µM
Kd (PEX5 W3 peptide [15]): 112 µM and 92.3 µM
Kd (PEX5 W4 peptide [16]): 44.9 µM and 48.5 µM and 36.9 µM

Binder: B17
binding result (PEX5 W4 peptide [17]): binds

Binder: B18
Kd (PEX14 NTD (1-104) [4]): 0.0205 µM
stoichiometry N (PEX14 NTD (1-104) [4]): 1
